# Measurements published in IntAct's records for PubMed 17167415.
# B1: DNA replication regulator SLD3 (Saccharomyces cerevisiae), P53135 (parent)
# chain: METWEVIASVKEATKGLDLSLDHPLIIKSEDVPSNILQLLQQKNRRQLKHICMKSRKEYFLLEEYGPGFWVKWPYNYFNGYSLPERRTEVVTTVERERAKRETLKTWDELKFKELLHLWSEEPKGSCKLEKDKDLKLDMNPPDMKGESKINDYYSDPKEYIESKYYDALFSIHTPLAYFVKSNLVRLKNTCRTKYGSDSYKIAYQAMLQKFLLSIVQFKDRHDNRLLLEPFSSPIADEKRKNCLTKFVIQDENKNSSTIADLCVVLKSREIKLQILLLLEIIGLNDLDWNFRDFEKKYKLKLKKRSLNLTKKGLVRRRSKKKTSEKDKGIERITTSLDYCEQLDLYLDRACILDILLSSETPNPDAIEASNGTIQEHKKNILDKSKEASLVGFINYVLIPYFNKKVPHAVEFIIQKLKGPSMRPKRALKKVNDSTNVSSPNTVETYNRLSTSQRASRSSIINSVPSSPALRRVDANLFSRKSIASPTPELLNSRTNSNLNEFLESETRSLKRPSQLGRTKSDLTMNHLQKRQFSVSDLSTTRVPNSSTITLKTPFSHSTINAYKTMNNSFRRVGKRKDINETIRLHERVDSEENVQVQATPAVKKRTVTPNKKAQLQSIIESPLNFKDDDTHEGRKNTSNITSTPTNKPPENSSKRRVRRRLFAPEST
# partner: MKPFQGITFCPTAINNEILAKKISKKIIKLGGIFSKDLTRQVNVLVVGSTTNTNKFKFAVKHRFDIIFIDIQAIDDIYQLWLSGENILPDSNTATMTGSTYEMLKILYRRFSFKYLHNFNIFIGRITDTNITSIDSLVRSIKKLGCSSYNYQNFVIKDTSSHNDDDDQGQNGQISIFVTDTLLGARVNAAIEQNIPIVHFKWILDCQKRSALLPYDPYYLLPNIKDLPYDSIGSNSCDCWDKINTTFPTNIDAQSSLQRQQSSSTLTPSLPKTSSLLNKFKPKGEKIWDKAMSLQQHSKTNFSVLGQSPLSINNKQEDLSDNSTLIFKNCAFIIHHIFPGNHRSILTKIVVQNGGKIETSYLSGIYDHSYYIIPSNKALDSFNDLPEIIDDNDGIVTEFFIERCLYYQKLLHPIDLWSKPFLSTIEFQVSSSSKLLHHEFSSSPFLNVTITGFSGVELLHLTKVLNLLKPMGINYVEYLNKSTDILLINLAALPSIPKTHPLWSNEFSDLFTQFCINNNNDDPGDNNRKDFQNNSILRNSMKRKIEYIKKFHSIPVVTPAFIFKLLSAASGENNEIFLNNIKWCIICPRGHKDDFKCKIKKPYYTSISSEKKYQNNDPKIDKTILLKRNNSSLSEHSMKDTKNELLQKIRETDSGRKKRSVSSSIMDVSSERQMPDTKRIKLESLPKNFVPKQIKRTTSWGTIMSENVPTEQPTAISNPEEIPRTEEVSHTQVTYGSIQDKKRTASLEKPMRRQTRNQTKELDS
# Variants of: B1
# Details: with dpb11_yeast DPB11, P47027
row,effect of a mutation on the interaction,Variant
1,disrupting interaction strength,T600A;S622A
